From the supplement of paper PMC9112550, “Optimization of the antimicrobial peptide Bac7 by deep mutational scanning” (BMC Biology, 2022)

Test system: Escherichia coli TOP10
Assay: shrunken log2 fold change of peptide-encoding DNA abundance (4.5 h post-induction vs induction); higher = less antimicrobial activity (less host growth inhibition)
Conditions: time post-induction: 4.5 h; library: site-saturation at positions 5, 18, 19, 20
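Also: peptides expressed intracellularly from a pBAD plasmid library in pooled LB shake-flask culture, induced with 0.3% L-arabinose, DNA abundance read by NGS, three biological replicates, DESeq2 with apeglm shrinkage.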

First: RRIRPRPPRLPRPRPRPLSCPRP
Second: RRIRARPPRLPRPRPRPRSVPRP
The “shrunken log2 fold change” value of the first is lower: -0.0219 for the first, 0.665 for the second.

First: RRIRTRPPRLPRPRPRPAVDPRP
Second: RRIRDRPPRLPRPRPRPGHKPRP
The “shrunken log2 fold change” value of the first is lower: -0.209 for the first, 0.00794 for the second.

Going from RRIRIRPPRLPRPRPRPWKKPRP to RRIRMRPPRLPRPRPRPVEAPRP, the “shrunken log2 fold change” value rises from 0.00748 to 0.396.

RRIRSRPPRLPRPRPRPSGGPRP and RRIRKRPPRLPRPRPRPHSGPRP are within 0.2 log units of each other in “shrunken log2 fold change” value: -0.0437 for the first, 0.066 for the second.

First: RRIRARPPRLPRPRPRPWLLPRP
Second: RRIRCRPPRLPRPRPRPISFPRP
The “shrunken log2 fold change” value of the first is higher: 0.156 for the first, -0.113 for the second.

Going from RRIRYRPPRLPRPRPRPQKPPRP to RRIRFRPPRLPRPRPRPSNEPRP, the “shrunken log2 fold change” value falls from -0.0745 to -0.378.

Going from RRIRPRPPRLPRPRPRPQFVPRP to RRIRWRPPRLPRPRPRPITSPRP, the “shrunken log2 fold change” value rises from -0.528 to -0.122.

Going from RRIRCRPPRLPRPRPRPLVPPRP to RRIRERPPRLPRPRPRPSKNPRP, the “shrunken log2 fold change” value falls from -0.202 to -0.895.

Going from RRIRSRPPRLPRPRPRPQNNPRP to RRIRSRPPRLPRPRPRPRVVPRP, the “shrunken log2 fold change” value rises from -0.573 to 0.245.

First: RRIRRRPPRLPRPRPRPQVMPRP
Second: RRIRPRPPRLPRPRPRPLIMPRP
The “shrunken log2 fold change” value of the first is higher: 0.0874 for the first, -0.131 for the second.

RRIRVRPPRLPRPRPRPETIPRP and RRIRQRPPRLPRPRPRPPPFPRP are within 0.2 log units of each other in “shrunken log2 fold change” value: 0.0608 for the first, 0.259 for the second.

Going from RRIRTRPPRLPRPRPRPNFPPRP to RRIRLRPPRLPRPRPRPSECPRP, the “shrunken log2 fold change” value rises from -0.00778 to 0.215.

RRIRHRPPRLPRPRPRPPRDPRP and RRIRSRPPRLPRPRPRPKLGPRP are within 0.2 log units of each other in “shrunken log2 fold change” value: 0.346 for the first, 0.281 for the second.

First: RRIRVRPPRLPRPRPRPRKNPRP
Second: RRIRGRPPRLPRPRPRPNLTPRP
The “shrunken log2 fold change” value of the first is lower: 0.0784 for the first, 0.374 for the second.

RRIRQRPPRLPRPRPRPVSPPRP and RRIRARPPRLPRPRPRPEAHPRP are within 0.2 log units of each other in “shrunken log2 fold change” value: -0.0264 for the first, 0.0341 for the second.

Compared with RRIRTRPPRLPRPRPRPRTRPRP, RRIRLRPPRLPRPRPRPMHYPRP is lower in “shrunken log2 fold change” value: 0.204 for the first, -0.094 for the second.

Going from RRIRARPPRLPRPRPRPHWGPRP to RRIRCRPPRLPRPRPRPPGYPRP, the “shrunken log2 fold change” value rises from 0.119 to 0.422.

Going from RRIRLRPPRLPRPRPRPQQLPRP to RRIRVRPPRLPRPRPRPYHRPRP, the “shrunken log2 fold change” value falls from -0.106 to -2.18.

First: RRIRKRPPRLPRPRPRPEGNPRP
Second: RRIRHRPPRLPRPRPRPKLQPRP
The “shrunken log2 fold change” value of the first is higher: 2.03 for the first, 0.0439 for the second.

RRIRHRPPRLPRPRPRPNCMPRP and RRIRFRPPRLPRPRPRPLCQPRP are within 0.2 log units of each other in “shrunken log2 fold change” value: -0.0153 for the first, -0.12 for the second.

First: RRIRFRPPRLPRPRPRPYSYPRP
Second: RRIRTRPPRLPRPRPRPVALPRP
The “shrunken log2 fold change” value of the first is lower: -0.268 for the first, 0.0946 for the second.

Going from RRIRFRPPRLPRPRPRPIPNPRP to RRIRERPPRLPRPRPRPNQPPRP, the “shrunken log2 fold change” value rises from -0.361 to 0.0495.

Going from RRIRIRPPRLPRPRPRPFICPRP to RRIRLRPPRLPRPRPRPLDAPRP, the “shrunken log2 fold change” value rises from -0.304 to 0.112.

First: RRIRSRPPRLPRPRPRPHPRPRP
Second: RRIRSRPPRLPRPRPRPTMYPRP
The “shrunken log2 fold change” value of the first is higher: 0.375 for the first, -0.247 for the second.

Going from RRIRERPPRLPRPRPRPRICPRP to RRIRMRPPRLPRPRPRPMDKPRP, the “shrunken log2 fold change” value rises from -0.111 to 0.3.

First: RRIRHRPPRLPRPRPRPYYMPRP
Second: RRIRYRPPRLPRPRPRPKWTPRP
The “shrunken log2 fold change” value of the first is lower: -0.636 for the first, -0.298 for the second.

RRIRARPPRLPRPRPRPGGHPRP and RRIRFRPPRLPRPRPRPPKHPRP are within 0.2 log units of each other in “shrunken log2 fold change” value: 0.115 for the first, 0.292 for the second.

RRIRFRPPRLPRPRPRPDQTPRP and RRIRKRPPRLPRPRPRPANQPRP are within 0.2 log units of each other in “shrunken log2 fold change” value: 0.0441 for the first, 0.239 for the second.

Compared with RRIRKRPPRLPRPRPRPEATPRP, RRIRRRPPRLPRPRPRPDMLPRP is lower in “shrunken log2 fold change” value: 3.17 for the first, -0.0772 for the second.

RRIRSRPPRLPRPRPRPWNFPRP and RRIRTRPPRLPRPRPRPKTFPRP are within 0.2 log units of each other in “shrunken log2 fold change” value: -0.0212 for the first, -0.00423 for the second.

Going from RRIRQRPPRLPRPRPRPNKMPRP to RRIRCRPPRLPRPRPRPIVGPRP, the “shrunken log2 fold change” value falls from -0.0321 to -0.477.

Compared with RRIRIRPPRLPRPRPRPPAMPRP, RRIRCRPPRLPRPRPRPELAPRP is lower in “shrunken log2 fold change” value: 1.68 for the first, 0.403 for the second.

RRIRRRPPRLPRPRPRPVDMPRP and RRIRDRPPRLPRPRPRPIWMPRP are within 0.2 log units of each other in “shrunken log2 fold change” value: 0.0522 for the first, -0.00247 for the second.

Going from RRIRPRPPRLPRPRPRPIVPPRP to RRIRMRPPRLPRPRPRPDILPRP, the “shrunken log2 fold change” value rises from -0.208 to 1.45.

RRIRERPPRLPRPRPRPPVTPRP and RRIRWRPPRLPRPRPRPVTLPRP are within 0.2 log units of each other in “shrunken log2 fold change” value: -0.152 for the first, -0.147 for the second.

RRIRIRPPRLPRPRPRPQFDPRP and RRIRCRPPRLPRPRPRPCRCPRP are within 0.2 log units of each other in “shrunken log2 fold change” value: -0.505 for the first, -0.389 for the second.

Going from RRIRNRPPRLPRPRPRPICQPRP to RRIRGRPPRLPRPRPRPTAEPRP, the “shrunken log2 fold change” value rises from -0.0999 to 3.04.

RRIRRRPPRLPRPRPRPNADPRP was tested, and the “shrunken log2 fold change” value was 0.579.
